Assay results: paper PMC11873932, “PSKH1 kinase activity is differentially modulated via allosteric binding of Ca^2+ sensor proteins” (Proceedings of the National Academy of Sciences of the …, 2025)

T1: Protein Serine Kinase H1 (PSKH1), recombinant full-length, wild type (human, UniProt P11801 1-424)
T1 sequence (looked up): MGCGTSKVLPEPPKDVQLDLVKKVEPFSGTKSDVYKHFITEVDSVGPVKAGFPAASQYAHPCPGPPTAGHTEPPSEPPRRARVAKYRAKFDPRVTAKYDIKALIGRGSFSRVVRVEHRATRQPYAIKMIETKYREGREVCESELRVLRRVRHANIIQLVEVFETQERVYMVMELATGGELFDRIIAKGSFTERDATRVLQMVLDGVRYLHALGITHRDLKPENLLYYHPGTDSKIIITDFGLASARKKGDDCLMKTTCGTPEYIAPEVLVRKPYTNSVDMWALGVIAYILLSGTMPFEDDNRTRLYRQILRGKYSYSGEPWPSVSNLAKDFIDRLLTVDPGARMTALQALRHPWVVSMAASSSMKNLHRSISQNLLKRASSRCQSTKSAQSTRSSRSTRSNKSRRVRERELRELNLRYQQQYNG

B1: Reticulocalbin-3 (RCN3), recombinant (His6-RCN3) (natural protein, human, UniProt Q96D15 21-328, looked up)
chain: KPSPDAGPHGQGRVHQAAPLSDAPHDDAHGNFQYDHEAFLGREVAKEFDQLTPEESQARLGRIVDRMDRAGDGDGWVSLAELRAWIAHTQQRHIRDSVSAAWDTYDTDRDGRVGWEELRNATYGHYAPGEEFHDVEDAETYKKMLARDERRFRVADQDGDSMATREELTAFLHPEEFPHMRDIVIAETLEDLDRNKDGYVQVEEYIADLYSAEPGEEEPAWVQTERQQFRDFRDLNKDGHLDGSEVGHWVLPPAQDQPLVEANHLLHESDTDKDGRLSKAEILGNWNMFVGSQATNYGEDLTRHHDEL
B2: UNC119B, recombinant full-length (natural protein)
chain: not shown
notes: UNC119B, human, full length

Key:
[1] = biological target: T1, Protein Serine Kinase H1 (PSKH1), …; experiment: cell-based or functional assay
[2] = biological target: T1, Protein Serine Kinase H1 (PSKH1), …; experiment: cross-linking; SDA (NHS-Diazirine, 1 mg/mL) cross-linking mass spectrometry; recombinant full-length PSKH1 with Calmodulin, RCN3 or UNC119B at 1:2 molar ratio; 30 min in the dark at room temperature, UV 365 nm; bands cut from reducing SDS-PAGE, trypsin; details: both partners purified

| Binder | radiometric kinase assay (ADR1 peptide phosphorylation) of HA-tagged PSKH1 (10 ng) with Ca2+-RCN3 (1 uM) [1] [fold] | binding result [2] |
| --- | --- | --- |
| B1 | ~2 | – |
| B2 | – | binds |
